Measured values from the supplement of paper PMC10567573.

B1: NP_006221.1 (parent)
chain: CQPISFSGFGAEDDDLGGLGLGP

Variants of: B1
Test: protein stability index of a GFP-peptide fusion (GPS, HEK-293T) (PSI 1-6); higher = more stable
Conditions: c terminus: native
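Also: lentivirally expressed fusion library, cells FACS-sorted into six equal-sized GFP/DsRed ratio bins, PSI computed from sequencing read fractions per bin weighted by bin number.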

| Variant | protein stability index |
| --- | --- |
| CGPISFSGFGAEDDDLGGLGLGP [Q2G] | 2.1 |
| CQPISFSGFGAEDDDLGGLGLGW [P23W] | 2.73 |
| CQPITFSGFGAEDDDLGGLGLGP [S5T] | 2.41 |
| CQPISFSGFGAEDDDEGGLGLGP [L16E] | 1.85 |
| CQPISFSGFGYEDDDLGGLGLGP [A11Y] | 2.06 |
| CQPISFSGFGAEDDDLGGDGLGP [L19D] | 2.39 |
| FQPISFSGFGAEDDDLGGLGLGP [C1F] | 2.6 |
| CQPISFSGFGAEDDDLGGLGCGP [L21C] | 3.02 |
| CQPISFSGFGAEDDDLGGLQLGP [G20Q] | 2.69 |
| CQPISFSGFGVEDDDLGGLGLGP [A11V] | 2.33 |
| CQPISFSGFGIEDDDLGGLGLGP [A11I] | 2.65 |
| CQPISFSGFGAEDDDLGGLNLGP [G20N] | 3.93 |
| CQPISFPGFGAEDDDLGGLGLGP [S7P] | 4.14 |
| CQPISNSGFGAEDDDLGGLGLGP [F6N] | 4.41 |
| CQWISFSGFGAEDDDLGGLGLGP [P3W] | 1.94 |
| CQPISSSGFGAEDDDLGGLGLGP [F6S] | 3.93 |
| CQPIRFSGFGAEDDDLGGLGLGP [S5R] | 2.14 |
| CQPISFSGFGAEDDDWGGLGLGP [L16W] | 2.25 |
| CQPISFSGFGAEDDDHGGLGLGP [L16H] | 2.26 |
| CQPISFSGFGAEDDDLGGNGLGP [L19N] | 2.54 |
| CQPISFSGFGSEDDDLGGLGLGP [A11S] | 2.22 |
| CAPISFSGFGAEDDDLGGLGLGP [Q2A] | 1.98 |
| CQPISFSGFGAEDDDLGGLGLGT [P23T] | 3.8 |
| CQPISFSGFGAEDDDLGGLGPGP [L21P] | 5.09 |
| CQPISFSGFGAEDDDLGGHGLGP [L19H] | 2.96 |

| Variant | protein stability index |
| --- | --- |
| CQPISFSGFGAEDDDLFGLGLGP [G17F] | 2.08 |
| CQPISFSGFGAEDDDLGGLGLRP [G22R] | 3.32 |
| CQPPSFSGFGAEDDDLGGLGLGP [I4P] | 2.2 |
| CQPISFSGFGAEDDDCGGLGLGP [L16C] | 2.34 |
| CQPISFSGFGAEPDDLGGLGLGP [D13P] | 2.08 |
| CQPWSFSGFGAEDDDLGGLGLGP [I4W] | 2.25 |
| CQPISFTGFGAEDDDLGGLGLGP [S7T] | 2.19 |
| CQPISFSCFGAEDDDLGGLGLGP [G8C] | 1.96 |
| CQPISFSGFGAEDDPLGGLGLGP [D15P] | 2.38 |
| CQPISFSGFGAEDDDLGGLGLKP [G22K] | 4.15 |
| CQPISFSGFGAEDDDLDGLGLGP [G17D] | 2.33 |
| CQPIIFSGFGAEDDDLGGLGLGP [S5I] | 2.75 |
| CQPISFSGFGAEDDDLGGLCLGP [G20C] | 2.51 |
| CQPISFSGFGAEDDDGGGLGLGP [L16G] | 2.21 |
| CQPISFSGFGAEDDDLGILGLGP [G18I] | 2.18 |
| CQPISFSGFGAEDDDLGGLVLGP [G20V] | 3.37 |
| CQPISFDGFGAEDDDLGGLGLGP [S7D] | 3.66 |
| CQPISFSRFGAEDDDLGGLGLGP [G8R] | 2.52 |
| CQPISFFGFGAEDDDLGGLGLGP [S7F] | 2.48 |
| CQPISFSGFGAWDDDLGGLGLGP [E12W] | 2.29 |
| CQPISFSGFGAEGDDLGGLGLGP [D13G] | 2.53 |
| CQPISFSGFGAEDDDLGGLGVGP [L21V] | 3.37 |
| CQPISFSGFGAEDDDLGKLGLGP [G18K] | 1.93 |
| CQPISFSGFGAEDDDVGGLGLGP [L16V] | 2.36 |
| CQPISFSGFGAEDDDYGGLGLGP [L16Y] | 2.27 |

| Variant | protein stability index |
| --- | --- |
| CQPISFSGFAAEDDDLGGLGLGP [G10A] | 2.16 |
| CQPISFSGFQAEDDDLGGLGLGP [G10Q] | 2.3 |
| CQPISFSGFGAFDDDLGGLGLGP [E12F] | 2.17 |
| CQPISKSGFGAEDDDLGGLGLGP [F6K] | 4.18 |
| CQPISFSGFPAEDDDLGGLGLGP [G10P] | 1.83 |
| CQPISFSGFGAEDDDFGGLGLGP [L16F] | 2.23 |
| CQPISFSGSGAEDDDLGGLGLGP [F9S] | 2.56 |
| CQPISPSGFGAEDDDLGGLGLGP [F6P] | 4.41 |
| CQPISFSGFGNEDDDLGGLGLGP [A11N] | 2.09 |
| CQPISFSGFGAEDDDLGGQGLGP [L19Q] | 2.39 |
| CQPISFRGFGAEDDDLGGLGLGP [S7R] | 2.56 |
| CQPISFSGFGAEDDDLGGLGLGV [P23V] | 3.45 |
| CQPISFYGFGAEDDDLGGLGLGP [S7Y] | 2.6 |
| CQPISFSGFSAEDDDLGGLGLGP [G10S] | 1.95 |
| CQPISFSGFGAEDDDLGPLGLGP [G18P] | 1.99 |
| CQPISFSGFGAEDDDLGGLYLGP [G20Y] | 2.83 |
| CQPISFSGFGAEWDDLGGLGLGP [D13W] | 2.31 |
| CQPISFSGFGAEDADLGGLGLGP [D14A] | 2.23 |
| CQPQSFSGFGAEDDDLGGLGLGP [I4Q] | 2.15 |
| CQPISFSGFGAEDDDLGGLMLGP [G20M] | 2.77 |
| CQPISFSGFGAEDDDLGGLGDGP [L21D] | 5.19 |
| CQPISFSGFGAEDDDLGGLKLGP [G20K] | 4.31 |
| CQPISFSGFGAEDDDLGGTGLGP [L19T] | 3.02 |
| CQPISFSGFGAEDDDLGVLGLGP [G18V] | 2.17 |
| CQPISYSGFGAEDDDLGGLGLGP [F6Y] | 2.52 |

| Variant | protein stability index |
| --- | --- |
| CQPISFSGFGAEDDDLYGLGLGP [G17Y] | 2.15 |
| NQPISFSGFGAEDDDLGGLGLGP [C1N] | 2.28 |
| CQPISFSGFFAEDDDLGGLGLGP [G10F] | 2.06 |
| CQPISFSGFGAEDDDLGGLGLCP [G22C] | 2.25 |
| CQPISFSGFGAGDDDLGGLGLGP [E12G] | 2.5 |
| CQPISFSGFGAEDDDLSGLGLGP [G17S] | 2.26 |
| CQPISFSGFGWEDDDLGGLGLGP [A11W] | 2.06 |
| CQEISFSGFGAEDDDLGGLGLGP [P3E] | 2.46 |
| CQPISFSGFGAEDDDLGGYGLGP [L19Y] | 2.31 |
| CQPISFSGFGAEDDDLGLLGLGP [G18L] | 2.24 |
| CQPISFSGFGAEDDDLGGLGHGP [L21H] | 4.76 |
| CQPISFSGFGAEDDDLGGLGLGR [P23R] | 2.95 |
| CLPISFSGFGAEDDDLGGLGLGP [Q2L] | 2.51 |
| CQPISFSGFKAEDDDLGGLGLGP [G10K] | 1.96 |
| CQPISFSGFGAEDDDLGGLGEGP [L21E] | 5.34 |
| CQPISFSGFGAEDDDLGGLGLYP [G22Y] | 2.59 |
| CQPISFSGFGAIDDDLGGLGLGP [E12I] | 1.94 |
| CQPISFCGFGAEDDDLGGLGLGP [S7C] | 2.11 |
| CQPIPFSGFGAEDDDLGGLGLGP [S5P] | 2.42 |
| CQPISFSGFGAEDDFLGGLGLGP [D15F] | 2.32 |
| CQPISFSGFGAEDDDLGGLTLGP [G20T] | 3.68 |
| CQPISDSGFGAEDDDLGGLGLGP [F6D] | 4.57 |
